Values of other authors in article PMC3292877.

Target: ERK2 (Rattus norvegicus) (UniProt P63086)

In the case of ERK2 (from UniProt P63086), the Kd is listed as 7 nM.
